Measured values reported in the supplement of paper PMC9170038.

Tested on: MS2 coat protein
Assay: apparent KD of MS2 coat protein; designed switch direction (-1 OFF switch, 1 ON switch): -1; higher = weaker reporter binding
In short: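 Designed RNA switches were transcribed on Illumina chips by stalled E. coli RNA polymerase and titrated with SNAP-549-labelled MS2 coat protein from 0.7 or 1.5 nM, doubling to 3 µM. Step length ran from 0.8–1.5 h at the lowest concentration to 10–20 min at the highest. The apparent KD is the median over clusters for each design, from curve-fitted normalised cluster fluorescence.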

[1] = input ligand: microRNA oligo, concentration not stated
[2] = Eterna round: R95, input ligand: microRNA oligo, concentration not stated
[3] = Eterna round: R95, input ligand: FMN 200 uM
[4] = Eterna round: R95, input ligand: none

Sequence	apparent KD of MS2 coat protein (input ligand: FMN 200 uM) [nM]	apparent KD of MS2 coat protein (input ligand: none) [nM]	apparent KD of MS2 coat protein [2] [nM]	also measured
UACGAAGAGUGAGGAUAUGUGCGACAAAGUUGCACAGAAGGCACAUGAGGAUCACCCAUGUAAGCUAGGUCGAAAGACCUAGCG [Omei Exc(NG)1 Av4] (Eterna round: R96, puzzle: Exclusion NG 1)	130	44.7		apparent KD of MS2 coat protein [1]: 21 nM
UACGAGCUAGGAUAUGCUUUGGGCUCGCUUUCCUUCGAUAAACUUGAGGAUCACCCAAGUAGAAGGAGCUUGUA [Mod 33 - Jieux - Exclusion 2] (Eterna round: R97, puzzle: Exclusion 2)	61.5	25.9		
UACUGGACAGGAUAUGUACUUGAGCACUUGAGGAUCACCCAAGUCAUCAAGUACUCAGGCACAGAAGGGUUAAUUU [jl-ex5.4.64 ViennaUCT mod] (Eterna round: R97, puzzle: Exclusion 5)	330	129		
UACUUCCGAGGAUAUACAUGAGGAUCACCCAUGUGCUUCAGCAUUUUUUGAUGCAUGGGUAGAAGGCGGUAGUU [LRO-Excl3-17] (puzzle: Exclusion 3)			299	
UACUUGUUAGGAUAUCUUACAUUUGCAUCAUAGCAACUAUUGGAGAAGGGACAUGAGGAUCACCCAUGUUUGGU [tap-tap-tappy13] (Eterna round: R97, puzzle: Exclusion 4)	48.4	41.9		
UAGAAACAUGAGGAUCACCCAUGUGAGGAUAUGAAAAAGAAAAGAAAAGAAAGAAGAAUCAGAAGGCACAAAGC [salish99-ex1_r3_092] (puzzle: Exclusion 1)			17.7	apparent KD of MS2 coat protein [3]: 28.6 nM; apparent KD of MS2 coat protein [4]: 36.6 nM
UAGAAGGUAGGAUAUACGAAUAAAUAGGGUAGAAUAAUAACACAUGAGGAUCACCCAUGUAGAAGGACCAAGAU [Mat - Exclusion 2 - Mod of my Tesla design - D30] (puzzle: Exclusion 2)			20.7	apparent KD of MS2 coat protein [3]: 42.9 nM; apparent KD of MS2 coat protein [4]: 20.7 nM
UAGAAGGUAGGAUAUACGAAUAAAUAGGGUAGUAAGAAUACACAUGAGGAUCACCCAUGUAGAAGGACCAAGAU [Mat - Exclusion 2 - Mod of my Tesla design - D32] (puzzle: Exclusion 2)			19.5	apparent KD of MS2 coat protein [3]: 43.1 nM; apparent KD of MS2 coat protein [4]: 20.9 nM
UAGAAGUUCAACGAGUGAAACAUGAGGAUCACCCAUGUGGUGGUAAGGAACAAGCUUUUUGCACGUACUUAUGAGGA [JR_SV3TOV1_Sub004] (puzzle: Sensor v3, turn-off variant 1)			400	apparent KD of MS2 coat protein [3]: 287 nM; apparent KD of MS2 coat protein [4]: 452 nM
UAGAAUCGAGGAUAUACAUGAGGAUCACCCAUGUGUGGCCAUACUGUGUGGUCGUCAGGUAGAAGGCGAUUAUA [Exclusion 3 - Mod of Jieux's Gilly Gone Silly 23] (puzzle: Exclusion 3)			45.4	
UAGAUACAUGAGGAUCACCCAUGUGAGGAUAUGAGUCAGUCACGGUGACGUGGCUGACUCAGAAGGCACAAAGG [Mat - Exclusion 1 - JL Mod - D36] (Eterna round: R97, puzzle: Exclusion 1)	365	202		
UAGAUGGGAGGAUAUACAUAGAUACAGAUUCGUGUAGUGCUACAUGAGGAUCACCCAUGUAGAAGGCCCGUCUU [JL-ex2-2.21 Mayanne mod] (puzzle: Exclusion 2)			15.2	
UAGAUGGGAGGAUAUACGUAGAUGCAGAUUCGUGUGGUGCUACAUGAGGAUCACCCAUGUAGAAGGCCCGUCUU [JL-ex2-2.24 Mayanne mod] (puzzle: Exclusion 2)			15.4	
UAGAUGGGAGGAUAUGCGUAGAUACGGAUUCGUGUGGUGCUACAUGAGGAUCACCCAUGUAGAAGGCCCGUCUU [JL-ex2-2.27 Mayanne mod] (puzzle: Exclusion 2)			12	
UAGAUGUGAGGAUAUGGUAAAGAUAGAAUGAUGAAAGAACUCCAGAAGGCACAUGAGGAUCACCCAUGUAGAUG [Mat - Exclusion 4 - Mod of JL - D29] (puzzle: Exclusion 4)			22.3	
UAGCACGGAGGAUAUUGGCUCGCACACAUGAGGAUCACCCAUGUGACUUUAUACUUCCGCUAAGAAGGCCGUGUGG [Eternabot (L1) Solution 93] (Eterna round: R97, puzzle: Exclusion 5)	13.2	14.3		

Sequence	apparent KD of MS2 coat protein (input ligand: FMN 200 uM) [nM]	apparent KD of MS2 coat protein (input ligand: none) [nM]	apparent KD of MS2 coat protein [2] [nM]	also measured
UAGCCAUCGUGAGAUGGCUUUCAUACAUGAGGAUCACCCAUGUAGGAUAUCGAUUGCUUUGCAGUCGAGAAGGGCAUGUAUAAU [JL ENG3 3.95] (Eterna round: R96, puzzle: Exclusion NG 3)	34.8	29.1		apparent KD of MS2 coat protein [1]: 22.8 nM
UAGCCCAACUCAUCCUCAUUGAGACAUGAGGAUCACCCAUGUGAGGAUAUUGCGUCGAGAGGACACGAGAAGGCACAAUAGUUU [Eternabot solution 17] (Eterna round: R96, puzzle: Exclusion NG 3)	216	109		apparent KD of MS2 coat protein [1]: 88.1 nM
UAGGGCUGCGGAGGAUAUCCAUAGUGGGCCGGUCGAAGCAUGAGACAUGAGGAUCACCCAUGUCUGGAGAAGGCUGAGCCCUCA [Lequcele] (Eterna round: R96, puzzle: Exclusion NG 2)	20.8	14.1		apparent KD of MS2 coat protein [1]: 12.1 nM
UAGGGUAAGUCAUGUACGAACAUGAGGAUCACCCAUGUAGCUGAAAUAAACCUCGUCCAAAUCUUUCCGUAAAAUGU [Zavein] (Eterna round: R96, puzzle: Sensor v2, turn-off variant)	271	295		apparent KD of MS2 coat protein [1]: 211 nM
UAGGUGUGAGGAUAUGGUAAAGAUAAAAUGAUGAAAGAACUCCAGAAGGCACAUGAGGAUCACCCAUGUAGAUG [Mat - Exclusion 4 - Mod of JL - D33] (puzzle: Exclusion 4)			28.3	
UAGUAUCUGCAGGAUAUCAGUGGAAAACACGUAUGAGAAGGGCAGACAUGAGGAUCACCCAUGUAAAGGGUCCG [BotMod 10 - Jieux - Exclusion 6] (Eterna round: R97, puzzle: Exclusion 6)	541	173		
UAGUGACAUGAGGAUCACCCAUGUGAGGAUAUAGUAGGAGUAAAGAGGAAAGAGAGAACUAGAAGGCACAGUGA [JR_Exclu1_Sub031] (puzzle: Exclusion 1)			48.4	apparent KD of MS2 coat protein [3]: 80 nM; apparent KD of MS2 coat protein [4]: 51.4 nM
UAGUUGCUCAGGGAGUGUGACAUGAGGAUCACCCAUGUGGUGGUAGGGAACAAGCUUUUUGCACGUACUUAUGAGUU [JR_SV3TOV1_Sub008] (puzzle: Sensor v3, turn-off variant 1)			42.5	apparent KD of MS2 coat protein [3]: 150 nM; apparent KD of MS2 coat protein [4]: 184 nM
UAUAAAACAUAGGAUAUCGAAUUAAUCAUUUAACGAGAAGGAUGAACAUGAGGAUCACCCAUGUGGUAUCAUGG [Mat - Exclusion 6 - JL Mod - D9] (puzzle: Exclusion 6)			61.5	apparent KD of MS2 coat protein [3]: 333 nM; apparent KD of MS2 coat protein [4]: 129 nM
UAUAACCGAGGAUAUACAUGAGGAUCACCCAUGUAAUGUAGUAUAAUAUAUGUAAAAUGUAGAAGGUGGGAUGU (Eterna round: R97, puzzle: Exclusion 3)	44.3	54.9		
UAUAACCGAGGAUAUACAUGAGGAUCACCCAUGUAAUGUAGUAUAAUGUAUGUAAGAUGUAGAAGGUGGGAUGU (Eterna round: R97, puzzle: Exclusion 3)	56.2	45.2		
UAUAAGGUAGGAUAUACGAAUAAAUAGGGUAGAAUAAUAACACAUGAGGAUCACCCAUGUAGAAGGACCAAUAU [Mat - Exclusion 2 - Mod of my Tesla design - D28] (puzzle: Exclusion 2)			21.1	apparent KD of MS2 coat protein [3]: 39.3 nM; apparent KD of MS2 coat protein [4]: 20.3 nM
UAUACACAUGAGGAUCACCCAUGUGAGGAUAUGCGUACGUUGUCCGUAGGCGACGUGCGCAGAAGGCGCAAGGU [Mat - Mod of JL D95] (puzzle: Exclusion 1)			61.4	
UAUACUAGAUAGGAUAUACUUUAUUUUUUUUUCGUAGAAGGAUCUACAUGAGGAUCACCCAUGUUAACAGCAGU [JR_E6_Sub008] (puzzle: Exclusion 6)			55.1	
UAUAUAUAGUAAGGAUAUGUAUAUAUUUUAUCAACAGAAGGUACUGACAUGAGGAUCACCCAUGUUUUAGUGUGGGCAUGUAGA [JMF's solution 71] (Eterna round: R96, puzzle: Exclusion NG 1)				apparent KD of MS2 coat protein [1]: 54.2 nM
UAUAUAUAGUAAGGAUAUGUAUAUAUUUUGUAAACAGAAGGUACUGACAUGAGGAUCACCCAUGUUUUAGUGUGGGCAUGUAGA [JMF's solution 66] (Eterna round: R96, puzzle: Exclusion NG 1)				apparent KD of MS2 coat protein [1]: 60.9 nM
